For test [1], the target named is T1, human KDAC8 (lysine deacetylase 8) (human) (UniProt Q9BY41).
T1 sequence: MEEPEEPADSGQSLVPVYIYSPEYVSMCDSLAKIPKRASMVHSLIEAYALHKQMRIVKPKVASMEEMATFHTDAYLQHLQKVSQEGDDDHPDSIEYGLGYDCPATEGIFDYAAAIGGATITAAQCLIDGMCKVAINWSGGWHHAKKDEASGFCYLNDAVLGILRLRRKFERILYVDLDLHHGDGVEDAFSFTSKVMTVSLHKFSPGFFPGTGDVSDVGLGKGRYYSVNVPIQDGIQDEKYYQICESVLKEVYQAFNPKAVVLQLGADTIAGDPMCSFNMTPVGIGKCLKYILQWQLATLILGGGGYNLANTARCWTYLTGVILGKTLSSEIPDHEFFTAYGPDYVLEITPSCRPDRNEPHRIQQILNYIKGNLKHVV

Test [2] deals with T2, KDAC6 (Homo sapiens, UniProt Q9UBN7).
T2 sequence (Q9UBN7 1-1215): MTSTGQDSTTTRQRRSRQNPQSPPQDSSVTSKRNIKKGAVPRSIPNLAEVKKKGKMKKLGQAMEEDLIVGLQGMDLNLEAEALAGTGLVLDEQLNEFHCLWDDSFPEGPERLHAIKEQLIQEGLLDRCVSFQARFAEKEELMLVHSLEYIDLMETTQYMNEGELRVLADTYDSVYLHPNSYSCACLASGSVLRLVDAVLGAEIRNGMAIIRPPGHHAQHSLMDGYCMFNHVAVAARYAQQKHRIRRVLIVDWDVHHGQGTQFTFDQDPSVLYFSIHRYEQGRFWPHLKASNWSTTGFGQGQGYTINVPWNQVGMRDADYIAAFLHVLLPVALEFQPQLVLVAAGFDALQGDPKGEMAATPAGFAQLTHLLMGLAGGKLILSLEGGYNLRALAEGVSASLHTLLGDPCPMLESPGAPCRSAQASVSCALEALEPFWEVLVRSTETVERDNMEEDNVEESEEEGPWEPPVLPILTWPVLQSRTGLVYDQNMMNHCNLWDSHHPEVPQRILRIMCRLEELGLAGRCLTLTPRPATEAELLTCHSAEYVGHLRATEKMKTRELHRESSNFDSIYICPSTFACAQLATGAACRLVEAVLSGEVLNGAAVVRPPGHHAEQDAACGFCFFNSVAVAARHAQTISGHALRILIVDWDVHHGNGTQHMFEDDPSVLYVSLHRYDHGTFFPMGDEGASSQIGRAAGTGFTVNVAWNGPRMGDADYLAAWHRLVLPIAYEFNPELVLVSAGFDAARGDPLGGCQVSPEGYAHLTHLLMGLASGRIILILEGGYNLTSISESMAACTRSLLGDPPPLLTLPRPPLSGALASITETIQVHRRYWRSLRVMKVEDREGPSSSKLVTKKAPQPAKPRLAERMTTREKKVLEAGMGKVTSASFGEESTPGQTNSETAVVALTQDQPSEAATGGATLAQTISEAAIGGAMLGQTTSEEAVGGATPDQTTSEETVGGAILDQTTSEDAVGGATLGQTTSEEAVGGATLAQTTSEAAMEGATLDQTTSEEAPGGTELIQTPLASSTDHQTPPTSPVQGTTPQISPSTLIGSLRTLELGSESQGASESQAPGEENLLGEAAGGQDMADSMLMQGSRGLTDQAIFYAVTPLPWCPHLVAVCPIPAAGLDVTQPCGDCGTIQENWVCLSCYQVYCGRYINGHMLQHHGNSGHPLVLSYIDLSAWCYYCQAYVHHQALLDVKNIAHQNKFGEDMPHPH

The target of test [3] is KDAC6 (lysine deacetylase 6) (human) (UniProt Q9UBN7).

Regarding RG{K-ac} (peptide), the KM of steady-state deacetylation kinetics (fluorescamine assay, 25 °C) in test [1] is more than 5000 µM.

With `O=C(CCCCCCC(=O)Nc1ccccc1)NO` [SAHA, suberoylanilide hydroxamic acid], the “SAHA inhibition of KDAC6 in the presence and absence of AMC” value in test [2] is “comparable”. In the case of {K-ac}W (peptide), the KM of steady-state deacetylation kinetics (fluorescamine assay, 25 °C) in test [1] is more than 5000 µM; in test [3], 70 µM.

B1: RG{K-ac}W (peptide)
peptide: Ac-RGK(Ac)W-NH2
As to B1, in test [1], the KM of steady-state deacetylation kinetics (fluorescamine assay, 25 °C) stood at 2700 µM.

B2: RH{K-ac}{K-ac}W (peptide)
peptide: Ac-RHK(Ac)K(Ac)W-NH2
B2: the KM of steady-state deacetylation kinetics (fluorescamine assay, 25 °C) in test [1] was determined as 1200 µM.

B3: RH{K-ac}{K-ac} (peptide)
peptide: Ac-RHK(Ac)K(Ac)-NH2
B3: the KM of steady-state deacetylation kinetics (fluorescamine assay, 25 °C) is 3100 µM in test [1] and 370 µM in test [3].

The values above are taken from publication PMC5937523 (Biochemistry, 2017).
